Patent US20180251570A1 (Bayer, published 2018)

T1: human tissue factor pathway inhibitor (TFPI) (human, UniProt P10646 29-304, limits assumed)
T1 construct: also called human TFPI (American Diagnostica)
T1 sequence (looked up): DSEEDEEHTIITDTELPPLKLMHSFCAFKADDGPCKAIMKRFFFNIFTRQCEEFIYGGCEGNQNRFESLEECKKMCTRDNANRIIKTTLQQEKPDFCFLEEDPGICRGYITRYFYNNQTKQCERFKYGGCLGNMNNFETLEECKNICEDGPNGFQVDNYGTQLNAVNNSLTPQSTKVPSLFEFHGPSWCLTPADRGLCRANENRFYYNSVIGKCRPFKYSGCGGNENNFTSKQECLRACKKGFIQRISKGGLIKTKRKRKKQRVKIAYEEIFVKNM


Target: T1, human tissue factor pathway inhibitor …
Test: BIACORE kinetics, CM4 chip with low density of amine-coupled human TFPI, antibody injected
Experimental: A CM4 sensor chip was immobilized with a low density of human TFPI using an amine coupling kit (GE HealthCare). Kinetic assays of parental IgG and IgG-linker1 were conducted using different concentration of the antibodies, followed by regeneration with pH 1.5 glycine buffer. The parental IgG and IgG-linker1 antibodies at a concentration of 1 μg were digested with 1 unit of biotinylated thrombin (Novagen) for 1 hr at 37° C. The antibodies with or without digestion were injected to a BIACORE™ system for TFPI-binding analysis.

Row | Binder | kon [M⁻¹ s⁻¹]
1 | IgG-linker1 (protease-regulated anti-TFPI IgG, undigested) (antibody, Expressed in HEK293 6E cells; also called IgG2-linker1) light: SYELTQPPSVSVSPGQTARITCSGDNLPKYYAHWYQQKPGQAPVVVIFYDVNRPSGIPERFSGSNSGNTATLTISGTQAMDEADYYCQAWWSSTPVFGGGTKLTVLGGGGSLVPRGSGGGGSGQPKAAPSVTLFPPSSEELQANKATLVCLISDFYPGAVTVAWKADSSPVKAGVETTTPSKQSNNKYAASSYLSLTPEQWKSHRSYSCQVTHEGSTVEKTVAPTECS heavy: EVQLVESGGGLVQPGGSLRLSCAASGFTFSSYGMDWVRQAPGKGLEWVSSIRGSRGSTYYADSVKGRFTISRDNSKNTLYLQMNSLRAEDTAVYYCARLYRYWFDYWGQGTLVTVSSASGGGGSLVPRGSGGGGSTKGPSVFPLAPCSRSTSESTAALGCLVKDYFPEPVTVSWNSGALTSGVHTFPAVLQSSGLYSLSSVVTVPSSNFGTQTYTCNVDHKPSNTKVDKTVERKCCVECPPCPAPPVAGPSVFLFPPKPKDTLMISRTPEVTCVVVDVSHEDPEVQFNWYVDGVEVHNAKTKPREEQFNSTFRVVSVLTVVHQDWLNGKEYKCKVSNKGLPAPIEKTISKTKGQPREPQVYTLPPSREEMTKNQVSLTCLVKGFYPSDIAVEWESNGQPENNYKTTPPMLDSDGSFFLYSKLTVDKSRWQQGNVFSCSVMHEALHNHYTQKSLSLSPG | 1.9e+06
2 | parental IgG (parental anti-TFPI antibody) (antibody, Expressed in HEK293 6E cells; also called Parent IgG; WT antibody) heavy: EVQLVESGGGLVQPGGSLRLSCAASGFTFSSYGMDWVRQAPGKGLEWVSSIRGSRGSTYYADSVKGRFTISRDNSKNTLYLQMNSLRAEDTAVYYCARLYRYWFDYWGQGTLVTVSSASTKGPSVFPLAPCSRSTSESTAALGCLVKDYFPEPVTVSWNSGALTSGVHTFPAVLQSSGLYSLSSVVTVPSSNFGTQTYTCNVDHKPSNTKVDKTVERKCCVECPPCPAPPVAGPSVFLFPPKPKDTLMISRTPEVTCVVVDVSHEDPEVQFNWYVDGVEVHNAKTKPREEQFNSTFRVVSVLTVVHQDWLNGKEYKCKVSNKGLPAPIEKTISKTKGQPREPQVYTLPPSREEMTKNQVSLTCLVKGFYPSDIAVEWESNGQPENNYKTTPPMLDSDGSFFLYSKLTVDKSRWQQGNVFSCSVMHEALHNHYTQKSLSLSPG light: SYELTQPPSVSVSPGQTARITCSGDNLPKYYAHWYQQKPGQAPVVVIFYDVNRPSGIPERFSGSNSGNTATLTISGTQAMDEADYYCQAWWSSTPVFGGGTKLTVLGQPKAAPSVTLFPPSSEELQANKATLVCLISDFYPGAVTVAWKADSSPVKAGVETTTPSKQSNNKYAASSYLSLTPEQWKSHRSYSCQVTHEGSTVEKTVAPTECS | 1.54e+06
